The values that follow are results of earlier work, collected in US20050019270A1, “Formulation of powder containing nanoparticles for aerosol delivery to the lungs” (priority 2003, published 2005).

For the series the following is noted: spray drying with polysorbate 20 added.

Where only a bound is given, the exact number is not on record here.

In the case of “recombinant human growth hormone: Protein in a prior spray drying study with polysorbate 20”, the surface aggregation was below 2%.
